The text below walks through data of patent publication US20240066131A1 (Protagonist Therapeutics, Inc., priority 2020, published 2024).

First the molecules themselves.
T1: ferroportin (Homo sapiens, UniProt Q9NP59)
T1 sequence (Q9NP59 1-571): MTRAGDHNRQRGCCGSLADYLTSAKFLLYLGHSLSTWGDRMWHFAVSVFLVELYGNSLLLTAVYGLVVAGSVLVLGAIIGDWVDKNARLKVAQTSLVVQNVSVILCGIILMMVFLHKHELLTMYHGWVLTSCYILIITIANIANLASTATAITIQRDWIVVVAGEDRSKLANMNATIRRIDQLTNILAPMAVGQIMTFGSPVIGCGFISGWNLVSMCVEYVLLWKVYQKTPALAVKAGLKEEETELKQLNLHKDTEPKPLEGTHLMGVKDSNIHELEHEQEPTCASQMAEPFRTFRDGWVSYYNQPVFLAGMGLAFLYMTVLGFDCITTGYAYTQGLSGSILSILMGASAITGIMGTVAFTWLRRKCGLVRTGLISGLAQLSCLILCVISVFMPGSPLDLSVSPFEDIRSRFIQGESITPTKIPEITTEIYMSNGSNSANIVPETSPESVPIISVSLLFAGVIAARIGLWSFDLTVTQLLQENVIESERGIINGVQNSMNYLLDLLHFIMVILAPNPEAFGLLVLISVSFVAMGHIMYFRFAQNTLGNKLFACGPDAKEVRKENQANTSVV

T2: human ferroportin (SLC40A1) fused in frame with GFP, stably expressed in HEK293 cells (human, UniProt Q9NP59 1-571)
T2 sequence (looked up): T1 sequence (Q9NP59 1-571)

B1: [Isovaleric Acid]-K-T-H-[Dpa]-P-A-[Lys(Carnitine)]-E-[N-MeLys(Ahx_Palm)]-[Phenylbutyl Amine] (peptide)
peptide: Isovaleryl-KTH[Dip]PAK(Carnitine)E[NMeK]([Ahx-Palmitoyl])-{NH(4-phenylbutyl)}
SMILES: CCCCCCCCCCCCCCCC(=O)NCCCCCC(=O)NCCCC[C@@H](C(=O)NCCCCc1ccccc1)N(C)C(=O)[C@H](CCC(=O)O)NC(=O)[C@H](CCCCNC(=O)C[C@@H](O)C[N+](C)(C)C)NC(=O)[C@H](C)NC(=O)[C@@H]1CCCN1C(=O)[C@@H](NC(=O)[C@H](Cc1c[nH]cn1)NC(=O)[C@@H](NC(=O)[C@H](CCCCN)NC(=O)CC(C)C)[C@@H](C)O)C(c1ccccc1)c1ccccc1
B2: [Isovaleric Acid]-K-T-H-[Dpa]-P-A-I-E-[bhPhe]-[Lys(Ahx_Palm)]-[Lys(Carnitine)]-NH2 (peptide)
peptide: Isovaleryl-KTH[Dip]PAIE[β3hF]K([Ahx-Palmitoyl])K(Carnitine)-NH2
SMILES: CCCCCCCCCCCCCCCC(=O)NCCCCCC(=O)NCCCC[C@H](NC(=O)C[C@H](Cc1ccccc1)NC(=O)[C@H](CCC(=O)O)NC(=O)[C@@H](NC(=O)[C@H](C)NC(=O)[C@@H]1CCCN1C(=O)[C@@H](NC(=O)[C@H](Cc1c[nH]cn1)NC(=O)[C@@H](NC(=O)[C@H](CCCCN)NC(=O)CC(C)C)[C@@H](C)O)C(c1ccccc1)c1ccccc1)[C@@H](C)CC)C(=O)N[C@@H](CCCCNC(=O)C[C@@H](O)C[N+](C)(C)C)C(N)=O
B3: [Isovaleric Acid]-E-T-H-[Dpa]-P-[DMG_N_2ae]-[(D)Lys]-[bhPhe]-[Lys(Ahx_Palm)]-NH2 (peptide)
peptide: XETHXPXXXX
modifications: N-term Isovaleric Acid; Dpa4; DMG_N_2ae6; (D)Lys7; bhPhe8; Lys(Ahx_Palm)9; C-term NH2

Starred links: 1 amine or outer side, 2 acyl side, 3 side chain; linkers in the order of their positions; H or OH if unused. Positions of bridges follow the written chain, without caps; N, C: chain ends. Non-standard residues stand in square brackets, D forms with d. Residues, ends and D or L forms follow the SMILES beside them. Groups on a side chain read outwards from the residue. No end group written: not given here. *: point of attachment. bhGly(phenylbutyl) = 3-((4-phenylbutyl)amino)propanoic acid, O=C(CCN(CCCCc1ccccc1)[*:1])[*:2]; Carnitine = carnitine group on the Lys side chain, C[N+](C)(C)C[C@H](O)CC(=O)*; Dip = N[C@H](C(=O)O)C(c1ccccc1)c1ccccc1; γGlu = O=C(O)[C@H](CCC(=O)[*:2])N[*:1]; NH(4-phenylbutyl) = c1ccc(CCCCN*)cc1; Palmitoyl = CCCCCCCCCCCCCCCC(=O)*; β3hF = N[C@H](CC(=O)O)Cc1ccccc1; DMG_N_2ae = not defined here; NMeK = CN[C@@H](CCCCN)C(=O)O; Isovaleryl = CC(C)CC(=O)*; Orn = NCCC[C@H](N)C(=O)O; Dap = NC[C@H](N)C(=O)O; Ahx = NCCCCCC(=O)O

In the first assay the target is T1, ferroportin. The assay is described as follows: T47D cell-based ferroportin internalization assay in presence of mouse serum albumin (MSA), AF647 detection peptide, flow cytometry. Further details: a human breast carcinoma adherent cell line which endogenously expresses ferroportin; host or cells: T47D. The following applies: second Table 6D, T47D/MSA data; with mouse serum albumin. The procedure: The potency of the peptides in causing ferroportin internalization was evaluated in a T47D cell-based assay. […] In this internalization assay, the potency of the test peptides was evaluated in presence of serum albumin which is the main protein component in the blood. T47D cells were maintained in RPMI media (containing required amount of fetal bovine serum) and regularly sub-cultured. […] The test peptide dilution series were allowed to incubate at room temperature for 30 min. Then the media was aspirated from the 96-well cell plate and test peptide dilution series were added. After 1 hr incubation, the media with test peptides was aspirated out and A1F647-conjugated detection peptide was added at fixed concentration of 200 nM. […] The cells were washed again after a 2 hr incubation in preparation for flow cytometry analysis. The Median Fluorescence Intensity (MFI) of the AF647-positive population was measured (after removing dead cells and non-singlets from the analysis). The MFI values were used to generate a dose-response curve and obtain IC50 potencies for the test peptides. The IC50 potencies were calculated by using 4-parameter non-linear fitting function in Graphpad Prism (Table 6D).
A general note: A flow cytometer gives signals particle by particle.
Broadly, the IC50 is the point on the concentration scale where inhibition reaches its midpoint. As to `CCCCCCCCCCCCCCCC(=O)N[C@@H](CCC(=O)NCCCC[C@H](NC(=O)[C@@H](NC(=O)[C@H](C)NC(=O)[C@@H]1CCCN1C(=O)[C@@H](NC(=O)[C@H](Cc1c[nH]cn1)NC(=O)[C@@H](NC(=O)[C@H](CCC(=O)O)NC(=O)CC(C)C)[C@@H](C)O)C(c1ccccc1)c1ccccc1)[C@@H](C)CC)C(=O)N[C@H](CC(=O)N[C@H](CCCCN)C(N)=O)Cc1ccccc1)C(=O)O` [compound 131] (Isovaleryl-ETH[Dip]PAIK([γGlu-Palmitoyl])[β3hF][dK]-NH2), the 50% inhibitory concentration (IC50) was 13.3 nM.

Regarding `CCCCCCCCCCCCCCCC(=O)NCCCCCC(=O)NCCCC[C@H](NC(=O)[C@@H]1CCCCNC(=O)CC[C@H](NC(=O)CC(C)C)C(=O)N[C@@H]([C@@H](C)O)C(=O)N[C@@H](Cc2c[nH]cn2)C(=O)N[C@@H](C(c2ccccc2)c2ccccc2)C(=O)N2CCC[C@H]2C(=O)N[C@@H](C)C(=O)N[C@@H]([C@@H](C)CC)C(=O)N1)C(N)=O` [compound 314] (Isovaleryl-ETH[Dip]PAIKK([Ahx-Palmitoyl])-NH2; lactam 1-8), the half-maximal inhibitory concentration (IC50) amounted to 10.6 nM.

Consider `CCCCCCCCCCCCCCCC(=O)NCCCCCC(=O)NCCCC[C@H](NC(=O)[C@@H](NC(=O)[C@H](C)NC(=O)[C@@H]1CCCN1C(=O)[C@H](Cc1ccccc1)NC(=O)[C@H](Cc1c[nH]cn1)NC(=O)[C@@H](NC(=O)[C@H](CCC(=O)O)NC(=O)CC(C)C)[C@@H](C)O)[C@@H](C)CC)C(=O)N[C@@H](Cc1ccccc1)C(=O)N[C@@H](CCC(=O)O)C(=O)N1CCC[C@H]1C(=O)N[C@@H](CCCNC(=N)N)C(=O)N[C@@H](CO)C(=O)N[C@@H](CCCCN)C(=O)NCC(=O)N[C@@H](C)C(=O)N[C@@H](CCCCN)C(N)=O` [compound 81] (Isovaleryl-ETHFPAIK([Ahx-Palmitoyl])FEPRSKGAK-NH2), for which the half-inhibitory concentration (IC50) was found to be 11.4 nM.

In another assay the target is T2, human ferroportin (SLC40A1) fused in …. The assay is described as follows: cell-based or functional assay.
Conditions: not given
Take Isovaleryl-[Dap]TH[Dip]PAI[NMeK]([Ahx-Palmitoyl])[bhGly(phenylbutyl)] [[Isovaleric Acid]-[Dap]-T-H-[Dpa]-P-A-I-[N-MeLys(Ahx_Palm)]-[bhGly(phenylbutyl)]]: the “IC50: FPN internalisation” value amounted to 597 nM.

Take B1: the “IC50: FPN internalisation” value was found to be 5.9 nM.

With B2, the “IC50: FPN internalisation” value came to 10.7 nM.

Isovaleryl-ETH[Dip]P[DMG_N_2ae][NMeK]([Ahx-Palmitoyl])[β3hF]-NH2 (reading uncertain) [[Isovaleric Acid]-E-T-H-[Dpa]-P-[DMG_N_2ae]-[N-MeLys(Ahx_Palm)]-[bhPhe]-NH2]: the “IC50: FPN internalisation” value turned out to be 10.7 nM.

On to Isovaleryl-KTH[Dip]P[DMG_N_2ae]E[β3hF]K([Ahx-Palmitoyl])-NH2 (reading uncertain) [[Isovaleric Acid]-K-T-H-[Dpa]-P-[DMG_N_2ae]-E-[bhPhe]-[Lys(Ahx_Palm)]-NH2], for which the “IC50: FPN internalisation” value came out at 13.6 nM.

On to Isovaleryl-[Orn]TH[Dip]PAI[NMeK]([Ahx-Palmitoyl])[bhGly(phenylbutyl)] [[Isovaleric Acid]-[Orn]-T-H-[Dpa]-P-A-I-[N-MeLys(Ahx_Palm)]-[bhGly(phenylbutyl)]], for which the “IC50: FPN internalisation” value came out at 201 nM.

For B3, the “IC50: FPN internalisation” value was 35.6 nM.

Take XETHXPXX (N-term Isovaleric Acid; Dpa4; Lys(Ahx_Palm)6; C-term Phenylbutyl Amine) [[Isovaleric Acid]-E-T-H-[Dpa]-P-[Lys(Ahx_Palm)]-[Phenylbutyl Amine]]: the “IC50: FPN internalisation” value was found to be 5.41 nM.
